In patent US20190169289A1 (Scripps Research, published 2019):

T1: CLL1 (UniProt Q5QGZ9 1-265, limits assumed)
T1 sequence (looked up): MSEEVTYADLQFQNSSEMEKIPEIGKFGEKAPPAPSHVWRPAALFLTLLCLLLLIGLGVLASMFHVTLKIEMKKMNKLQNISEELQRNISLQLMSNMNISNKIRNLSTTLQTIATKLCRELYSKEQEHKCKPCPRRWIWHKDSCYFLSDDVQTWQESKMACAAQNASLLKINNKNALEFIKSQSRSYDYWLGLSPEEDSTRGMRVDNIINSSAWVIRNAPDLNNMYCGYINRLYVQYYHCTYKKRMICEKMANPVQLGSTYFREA


Legend:
CLL1 [1] = molecular target: T1, CLL1; test: cell-based or functional assay
CLL1 [2] = molecular target: T1, CLL1; test: cell-based or functional assay; remark: listed apart in the source
[3] = molecular target: T2, anti-GCN4 (52SR4 scFv) sCAR with CD8 hinge; test: flow cytometry on CD8 sCAR-T cells, switch 30 min at 4 C, detected with PE-conjugated goat anti-human kappa chain antibody, MFI
T2 construct: 273 is the protein without leader; also called sCAR (long); CD8 sCAR
Description: Cells were washed two times and analyzed using the Accuri flow cytometer (BD).

Binder | EC50 [3] [pM] | binding result [3] | EC50 of cytotoxicity, short hinge CAR (CLL1 [1]) [pM] | EC50 of cytotoxicity, long hinge CAR (CLL1 [2]) [pM]
anti-CLL1 (1075.7) Fab switch C (heavy chain C terminus) (Fab, V domains shown) VH: DIQLQESGPGLVKPSQSLSLTCSVTGYSITSAYYWNWIRQFPGNKLEWMGYISYDGRNNYNPSLKNRISITRDTSKNQFFLKLNSVTTEDTATYYCAKEGDYDVGNYYAMDYWGQGTSVTVSS VL: ENVLTQSPAIMSASPGEKVTMTCRASSNVISSYVHWYQQRSGASPKLWIYSTSNLASGVPARFSGSGSGTSYSLTISSVEAEDAATYYCQQYSGYPLTFGAGTKLELKR |  |  | 4.9 | 3.3
anti-CLL1 (1075.7) Fab bivalent switch A + B (Fab, V domains shown) VH: DIQLQESGPGLVKPSQSLSLTCSVTGYSITSAYYWNWIRQFPGNKLEWMGYISYDGRNNYNPSLKNRISITRDTSKNQFFLKLNSVTTEDTATYYCAKEGDYDVGNYYAMDYWGQGTSVTVSS VL: ENVLTQSPAIMSASPGEKVTMTCRASSNVISSYVHWYQQRSGASPKLWIYSTSNLASGVPARFSGSGSGTSYSLTISSVEAEDAATYYCQQYSGYPLTFGAGTKLELKR |  |  | 0.5 | 0.6
anti-CLL1 (1075.7) Fab switch B (HCNT3) (Fab, V domains shown) VH: DIQLQESGPGLVKPSQSLSLTCSVTGYSITSAYYWNWIRQFPGNKLEWMGYISYDGRNNYNPSLKNRISITRDTSKNQFFLKLNSVTTEDTATYYCAKEGDYDVGNYYAMDYWGQGTSVTVSS VL: ENVLTQSPAIMSASPGEKVTMTCRASSNVISSYVHWYQQRSGASPKLWIYSTSNLASGVPARFSGSGSGTSYSLTISSVEAEDAATYYCQQYSGYPLTFGAGTKLELKR |  |  | 0.6 | 1.3
anti-CLL1 (1075.7) Fab switch A (LCNT1) (Fab, V domains shown) VH: DIQLQESGPGLVKPSQSLSLTCSVTGYSITSAYYWNWIRQFPGNKLEWMGYISYDGRNNYNPSLKNRISITRDTSKNQFFLKLNSVTTEDTATYYCAKEGDYDVGNYYAMDYWGQGTSVTVSS VL: ENVLTQSPAIMSASPGEKVTMTCRASSNVISSYVHWYQQRSGASPKLWIYSTSNLASGVPARFSGSGSGTSYSLTISSVEAEDAATYYCQQYSGYPLTFGAGTKLELKR |  |  | 1.5 | 4.1
anti-CD19 (FMC63) Fab CTBV switch (Fab, the text prints 97 & 34; also called BV CT) light: DIQMTQTTSSLSASLGDRVTISCRASQDISKYLNWYQQKPDGTVKLLIYHTSRLHSGVPSRFSGSGSGTDYSLTISNLEQEDIATYFCQQGNTLPYTFGGGTKLEIKRTVAAPSVFIFPPSDEQLKSGTASVVCLLNNFYPREAKVQWKVDNALQSGNSQESVTEQDSKDSTYSLSSTLTLSKADYEKHKVYACEVTHQGLSSPVTKSFNRGECGGGGSNYHLENEVARLKKL heavy: EVKLQESGPGLVAPSQSLSVTCTVSGVSLPDYGVSWIRQPPRKGLEWLGVIWGSETTYYNSALKSRLTIIKDNSKSQVFLKMNSLQTDDTAIYYCAKHYYYGGSYAMDYWGQGTSVTVSSASTKGPSVFPLAPSSKSTSGGTAALGCLVKDYFPEPVTVSWNSGALTSGVHTFPAVLQSSGLYSLSSVVTVPSSSLGTQTYICNVNHKPSNTKVDKKVEPKSCGGGGSNYHLENEVARLKKL | 360 |  |  | 
anti-CD19 (FMC63) Fab C1BV switch (Fab, also called BV C1) light: DIQMTQTTSSLSASLGDRVTISCRASQDISKYLNWYQQKPDGTVKLLIYHTSRLHSGVPSRFSGSGSGTDYSLTISNLEQEDIATYFCQQGNTLPYTFGGGTKLEIKRTVAAPSVFIFPPSDEQLKSGTASVVCLLNNFYPREAKVQWKVDNALQSGNSQESVTEQDSGGGGSNYHLENEVARLKKLGGGGSDSTYSLSSTLTLSKADYEKHKVYACEVTHQGLSSPVTKSFNRGEC heavy: EVKLQESGPGLVAPSQSLSVTCTVSGVSLPDYGVSWIRQPPRKGLEWLGVIWGSETTYYNSALKSRLTIIKDNSKSQVFLKMNSLQTDDTAIYYCAKHYYYGGSYAMDYWGQGTSVTVSSASTKGPSVFPLAPSSNYHLENEVARLKKLSGGTAALGCLVKDYFPEPVTVSWNSGALTSGVHTFPAVLQSSGLYSLSSVVTVPSSSLGTQTYICNVNHKPSNTKVDKKVEPKSC | 620 |  |  | 
anti-CLL1 (1075.7) Fab switch D (light chain C terminus) (Fab) light: ENVLTQSPAIMSASPGEKVTMTCRASSNVISSYVHWYQQRSGASPKLWIYSTSNLASGVPARFSGSGSGTSYSLTISSVEAEDAATYYCQQYSGYPLTFGAGTKLELKRAAAAPSVFIFPPSDEQLKSGTASVVCLLNNFYPREAKVQWKVDNALQSGNSQESVTEQDSKDSTYSLSSTLTLSKADYEKHKVYACEVTHQGLSSPVTKSFNRGECGGGGSNYHLENEVARLKKL heavy: DIQLQESGPGLVKPSQSLSLTCSVTGYSITSAYYWNWIRQFPGNKLEWMGYISYDGRNNYNPSLKNRISITRDTSKNQFFLKLNSVTTEDTATYYCAKEGDYDVGNYYAMDYWGQGTSVTVSSARTKGPSVFPLAPSSKSTSGGTAALGCLVKDYFPEPVTVSWNSGALTSGVHTFPAVLQSSGLYSLSSVVTVPSSSLGTQTYICNVNHKPSNTKVDKKVEPKSC |  |  | 5.1 | 2.2
anti-CLL1 (1075.7) Fab bivalent switch C + D (Fab) light: ENVLTQSPAIMSASPGEKVTMTCRASSNVISSYVHWYQQRSGASPKLWIYSTSNLASGVPARFSGSGSGTSYSLTISSVEAEDAATYYCQQYSGYPLTFGAGTKLELKRAAAAPSVFIFPPSDEQLKSGTASVVCLLNNFYPREAKVQWKVDNALQSGNSQESVTEQDSKDSTYSLSSTLTLSKADYEKHKVYACEVTHQGLSSPVTKSFNRGECGGGGSNYHLENEVARLKKL heavy: DIQLQESGPGLVKPSQSLSLTCSVTGYSITSAYYWNWIRQFPGNKLEWMGYISYDGRNNYNPSLKNRISITRDTSKNQFFLKLNSVTTEDTATYYCAKEGDYDVGNYYAMDYWGQGTSVTVSSARTKGPSVFPLAPSSKSTSGGTAALGCLVKDYFPEPVTVSWNSGALTSGVHTFPAVLQSSGLYSLSSVVTVPSSSLGTQTYICNVNHKPSNTKVDKKVEPKSCGGGGSNYHLENEVARLKKL |  |  | 1.2 | 3.1

Now from value to binder, other results behind:

EC50 [3] [pM] | binding result [3] | Binder | EC50 of cytotoxicity, short hinge CAR (CLL1 [1]) [pM] | EC50 of cytotoxicity, long hinge CAR (CLL1 [2]) [pM]
4600 |  | anti-CD19 (FMC63) Fab LCC1 switch (Fab, also called anti-CD19 Fab CL1-GCN4) light: DIQMTQTTSSLSASLGDRVTISCRASQDISKYLNWYQQKPDGTVKLLIYHTSRLHSGVPSRFSGSGSGTDYSLTISNLEQEDIATYFCQQGNTLPYTFGGGTKLEIKRTVAAPSVFIFPPSDEQLKSGTASVVCLLNNFYPREAKVQWKVDNALQSGNSQESVTEQDSGGGGSNYHLENEVARLKKLGGGGSDSTYSLSSTLTLSKADYEKHKVYACEVTHQGLSSPVTKSFNRGEC heavy: EVKLQESGPGLVAPSQSLSVTCTVSGVSLPDYGVSWIRQPPRKGLEWLGVIWGSETTYYNSALKSRLTIIKDNSKSQVFLKMNSLQTDDTAIYYCAKHYYYGGSYAMDYWGQGTSVTVSSASTKGPSVFPLAPSSKSTSGGTAALGCLVKDYFPEPVTVSWNSGALTSGVHTFPAVLQSSGLYSLSSVVTVPSSSLGTQTYICNVNHKPSNTKVDKKVEPKSC |  | 
4600 |  | anti-CD19 (FMC63) Fab LCCT switch (Fab) light: DIQMTQTTSSLSASLGDRVTISCRASQDISKYLNWYQQKPDGTVKLLIYHTSRLHSGVPSRFSGSGSGTDYSLTISNLEQEDIATYFCQQGNTLPYTFGGGTKLEIKRTVAAPSVFIFPPSDEQLKSGTASVVCLLNNFYPREAKVQWKVDNALQSGNSQESVTEQDSKDSTYSLSSTLTLSKADYEKHKVYACEVTHQGLSSPVTKSFNRGECGGGGSNYHLENEVARLKKL heavy: EVKLQESGPGLVAPSQSLSVTCTVSGVSLPDYGVSWIRQPPRKGLEWLGVIWGSETTYYNSALKSRLTIIKDNSKSQVFLKMNSLQTDDTAIYYCAKHYYYGGSYAMDYWGQGTSVTVSSASTKGPSVFPLAPSSKSTSGGTAALGCLVKDYFPEPVTVSWNSGALTSGVHTFPAVLQSSGLYSLSSVVTVPSSSLGTQTYICNVNHKPSNTKVDKKVEPKSC |  | 
11700 |  | anti-CD19 (FMC63) Fab HCCT switch (Fab, V domains shown, also called C-terminal switch) VH: EVKLQESGPGLVAPSQSLSVTCTVSGVSLPDYGVSWIRQPPRKGLEWLGVIWGSETTYYNSALKSRLTIIKDNSKSQVFLKMNSLQTDDTAIYYCAKHYYYGGSYAMDYWGQGTSVTVSS VL: DIQMTQTTSSLSASLGDRVTISCRASQDISKYLNWYQQKPDGTVKLLIYHTSRLHSGVPSRFSGSGSGTDYSLTISNLEQEDIATYFCQQGNTLPYTFGGGTKLEIKR |  | 
 | no binding (tested: 10^2 nM) | anti-CD19 (FMC63) Fab with no grafted peptide (Fab, V domains shown, also called WT; wild type anti-CD19 Fab) VH: EVKLQESGPGLVAPSQSLSVTCTVSGVSLPDYGVSWIRQPPRKGLEWLGVIWGSETTYYNSALKSRLTIIKDNSKSQVFLKMNSLQTDDTAIYYCAKHYYYGGSYAMDYWGQGTSVTVSS VL: DIQMTQTTSSLSASLGDRVTISCRASQDISKYLNWYQQKPDGTVKLLIYHTSRLHSGVPSRFSGSGSGTDYSLTISNLEQEDIATYFCQQGNTLPYTFGGGTKLEIKR |  | 
690 |  | anti-CD19 (FMC63) Fab NTBV switch (Fab, V domains shown, also called BV NT) VH: EVKLQESGPGLVAPSQSLSVTCTVSGVSLPDYGVSWIRQPPRKGLEWLGVIWGSETTYYNSALKSRLTIIKDNSKSQVFLKMNSLQTDDTAIYYCAKHYYYGGSYAMDYWGQGTSVTVSS VL: DIQMTQTTSSLSASLGDRVTISCRASQDISKYLNWYQQKPDGTVKLLIYHTSRLHSGVPSRFSGSGSGTDYSLTISNLEQEDIATYFCQQGNTLPYTFGGGTKLEIKR |  | 
